The assay deals with adaptor protein complex 2 (AP-2), P17426;Q9DBG3;P84091;P62743. As to the kind of experiment: GST pull-down from brain lysate, immunoblot band quantification. The conditions noted are these: chain shown with the change; n = 3 independent experiments; parent: est. 1.0; read off a plot.

B1: GST-VGLUT1 C-terminus-WT (cytoplasmic C-terminal region of VGLUT1, a.a. 496-560), Q3TXX4 F510A; V511A (protein)
chain: PWAEPEEMSEEKCGAAGHDQLAGSDESEMEDEAEPPGAPPAPPPSYGATHSTVQPPRPPPPVRDY
As for B1, the ratio to parent is 0.19.

For the origin of these results see publication PMC8752090.
